The source of these data is patent publication US20070054328A1 (published 2007).

The target of assay [1] is T1, endogenous PTPL1 (Protein Tyrosine Phosphatase Like-Protein-1) of 293 cells (human, UniProt Q12923 1-2485, limits assumed).
T1 construct: also called FAP-1; endogenously expressed PTPL1
Put plainly: GST pull-down from 293 cells; pNPP phosphatase assay and anti-PTPL1 immunoblot. Here is the method:
Rates or amounts of para-nitrophenol production were calculated using a standard curve generated from known amounts of para-nitrophenol. For the insulin receptor peptide assay a 50 μl reaction was set up containing 20 mM Tris pH7.4, 150 mM NaCl, 1 mM DTT, 20 μM of the tyrosine-phosphorylated peptide and 100 ng of GST-PTPL1. After 10 min at room temperature, the reactions were terminated by the addition of 0.1 ml of BIOMOL green reagent and after an additional 20 min the amount of phosphate liberated was quantitated by absorbance at 620 nm and measured against inorganic phosphate standards. In all assays we ensured that the rate of para-nitrophenol formation or the dephosphorylation of the insulin receptor peptide, was linear with time.
Immunoblotting. For blots of total cell lysates or tissues 20 μg of protein was used. For the purified GST fusion proteins to detect association of endogenous PTPL1, 10 μg of fusion protein was employed for the PTPL1 blots and 0.1 μg for the GST blots. Samples were subjected to SDS/PAGE and transferred to nitrocellulose. […]

The target of assay [2] is T1, endogenous PTPL1 (Protein Tyrosine …). Put plainly: cell-based or functional assay.

T1 sequence (Q12923 whole entry): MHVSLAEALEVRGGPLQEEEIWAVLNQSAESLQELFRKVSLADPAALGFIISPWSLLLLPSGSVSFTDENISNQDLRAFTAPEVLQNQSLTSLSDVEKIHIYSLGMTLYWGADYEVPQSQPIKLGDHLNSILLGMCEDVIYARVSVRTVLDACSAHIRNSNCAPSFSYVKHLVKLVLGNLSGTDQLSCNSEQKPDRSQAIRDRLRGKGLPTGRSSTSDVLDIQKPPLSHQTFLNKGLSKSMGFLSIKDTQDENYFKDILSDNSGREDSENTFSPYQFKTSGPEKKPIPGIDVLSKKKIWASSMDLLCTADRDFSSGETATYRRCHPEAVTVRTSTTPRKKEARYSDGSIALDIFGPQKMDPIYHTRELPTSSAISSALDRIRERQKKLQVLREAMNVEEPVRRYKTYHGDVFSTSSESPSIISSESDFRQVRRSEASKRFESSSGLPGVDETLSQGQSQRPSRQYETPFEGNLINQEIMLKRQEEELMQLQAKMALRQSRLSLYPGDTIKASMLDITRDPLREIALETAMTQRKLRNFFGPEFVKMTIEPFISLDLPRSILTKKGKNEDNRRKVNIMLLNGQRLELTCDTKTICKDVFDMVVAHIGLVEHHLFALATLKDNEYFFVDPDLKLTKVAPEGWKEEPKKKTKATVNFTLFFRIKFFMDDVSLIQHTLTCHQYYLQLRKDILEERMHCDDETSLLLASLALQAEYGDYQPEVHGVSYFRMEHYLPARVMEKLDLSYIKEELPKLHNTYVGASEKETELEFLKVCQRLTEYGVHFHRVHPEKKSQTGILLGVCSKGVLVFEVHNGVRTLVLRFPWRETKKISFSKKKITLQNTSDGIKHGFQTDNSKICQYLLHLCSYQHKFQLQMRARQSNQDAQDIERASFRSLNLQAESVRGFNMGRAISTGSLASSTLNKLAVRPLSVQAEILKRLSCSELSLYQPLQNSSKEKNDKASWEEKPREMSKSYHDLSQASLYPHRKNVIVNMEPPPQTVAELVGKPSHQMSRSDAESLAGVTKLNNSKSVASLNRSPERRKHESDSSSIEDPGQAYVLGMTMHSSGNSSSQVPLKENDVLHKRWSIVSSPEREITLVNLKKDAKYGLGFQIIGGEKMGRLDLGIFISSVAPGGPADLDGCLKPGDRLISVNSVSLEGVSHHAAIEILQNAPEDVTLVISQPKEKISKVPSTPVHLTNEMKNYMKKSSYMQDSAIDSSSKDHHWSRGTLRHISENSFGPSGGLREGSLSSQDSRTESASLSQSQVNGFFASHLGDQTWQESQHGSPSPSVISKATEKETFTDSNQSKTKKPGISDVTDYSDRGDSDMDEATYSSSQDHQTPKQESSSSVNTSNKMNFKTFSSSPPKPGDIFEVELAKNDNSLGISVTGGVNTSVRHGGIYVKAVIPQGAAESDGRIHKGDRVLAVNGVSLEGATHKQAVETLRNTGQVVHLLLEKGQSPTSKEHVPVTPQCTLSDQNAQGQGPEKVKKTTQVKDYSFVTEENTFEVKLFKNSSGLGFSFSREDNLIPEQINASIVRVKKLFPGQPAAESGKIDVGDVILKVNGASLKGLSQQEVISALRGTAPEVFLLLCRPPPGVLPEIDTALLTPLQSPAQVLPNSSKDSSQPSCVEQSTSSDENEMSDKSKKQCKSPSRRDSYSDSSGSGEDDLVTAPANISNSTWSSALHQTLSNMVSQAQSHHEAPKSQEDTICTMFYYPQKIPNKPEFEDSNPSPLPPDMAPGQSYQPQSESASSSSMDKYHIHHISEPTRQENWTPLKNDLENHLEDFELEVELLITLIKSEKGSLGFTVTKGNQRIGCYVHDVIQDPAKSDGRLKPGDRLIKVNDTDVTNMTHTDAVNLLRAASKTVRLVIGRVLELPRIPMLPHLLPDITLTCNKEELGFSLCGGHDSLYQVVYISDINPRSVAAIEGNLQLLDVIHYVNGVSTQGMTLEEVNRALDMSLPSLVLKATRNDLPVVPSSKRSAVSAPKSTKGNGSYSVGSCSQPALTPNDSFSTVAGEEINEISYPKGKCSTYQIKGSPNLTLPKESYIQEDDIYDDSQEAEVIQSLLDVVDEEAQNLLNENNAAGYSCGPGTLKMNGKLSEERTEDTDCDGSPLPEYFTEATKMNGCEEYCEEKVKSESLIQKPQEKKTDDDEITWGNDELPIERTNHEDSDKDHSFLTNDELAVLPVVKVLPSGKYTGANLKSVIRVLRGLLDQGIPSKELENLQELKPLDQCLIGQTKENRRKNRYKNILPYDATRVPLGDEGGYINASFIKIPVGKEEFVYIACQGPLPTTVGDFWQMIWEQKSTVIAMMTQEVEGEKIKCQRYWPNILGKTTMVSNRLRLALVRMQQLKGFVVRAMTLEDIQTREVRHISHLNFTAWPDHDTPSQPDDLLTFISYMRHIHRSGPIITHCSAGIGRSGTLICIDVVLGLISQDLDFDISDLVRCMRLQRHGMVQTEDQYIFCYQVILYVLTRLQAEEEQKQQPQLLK

B1: GST-FAPP1 (other, UniProt Q9HB20 1-300, looked up)
chain: MEGVLYKWTNYLTGWQPRWFVLDNGILSYYDSQDDVCKGSKGSIKMAVCEIKVHSADNTRMELIIPGEQHFYMKAVNAAERQRWLVALGSSKACLTDTRTKKEKEISETSESLKTKMSELRLYCDLLMQQVHTIQEFVHHDENHSSPSAENMNEASSLLSATCNTFITTLEECVKIANAKFKPEMFQLHHPDPLVSPVSPSPVQMMKRSVSHPGSCSSERSSHSIKEPVSTLHRLSQRRRRTYSDTDSCSDIPLEDPDRPVHCSKNTLNGDLASATIPEESRLMAKKQSESEDTLPSFSS
notes: Control GST fusion expressed in 293 cells; not shown: N-terminal glutathione S-transferase (GST) tag
B1: the binding result in assay [1] was “no binding”.

B2: endogenous TAPP1 of 293 cells (other, human, UniProt Q9HB21 1-404, looked up)
chain: MPYVDRQNRICGFLDIEENENSGKFLRRYFILDTREDSFVWYMDNPQNLPSGSSRVGAIKLTYISKVSDATKLRPKAEFCFVMNAGMRKYFLQANDQQDLVEWVNVLNKAIKITVPKQSDSQPNSDNLSRHGECGKKQVSYRTDIVGGVPIITPTQKEEVNECGESIDRNNLKRSQSHLPYFTPKPPQDSAVIKAGYCVKQGAVMKNWKRRYFQLDENTIGYFKSELEKEPLRVIPLKEVHKVQECKQSDIMMRDNLFEIVTTSRTFYVQADSPEEMHSWIKAVSGAIVAQRGPGRSASSEHPPGPSESKHAFRPTNAATATSHSTASRSNSLVSTFTMEKRGFYESLAKVKPGNFKVQTVSPREPASKVTEQALLRPQSKNGPQEKDCDLVDLDDASLPVSDV
B2: the “pNPP phosphatase activity immunoprecipitated with the anti-PTPL1 antibody compared with the TAPP1 antibody” value in assay [2] is ~6 fold.

B3: GST-DAPP1 (other, UniProt Q9UN19 1-280, looked up)
chain: MGRAELLEGKMSTQDPSDLWSRSDGEAELLQDLGWYHGNLTRHAAEALLLSNGCDGSYLLRDSNETTGLYSLSVRAKDSVKHFHVEYTGYSFKFGFNEFSSLKDFVKHFANQPLIGSETGTLMVLKHPYPRKVEEPSIYESVRVHTAMQTGRTEDDLVPTAPSLGTKEGYLTKQGGLVKTWKTRWFTLHRNELKYFKDQMSPEPIRILDLTECSAVQFDYSQERVNCFCLVFPFRTFYLCAKTGVEADEWIKILRWKLSQIRKQLNQGEGTIRSRSFIFK
notes: Control GST fusion expressed in 293 cells; also called dual adaptor for phosphotyrosine and 3-phosphoinositides; not shown: N-terminal glutathione S-transferase (GST) tag
Turning to B3, the binding result in assay [1] was “no binding”.
